T1: CARD11, Q9BXL7
T1 sequence (Q9BXL7 662-765, limits assumed, looked up): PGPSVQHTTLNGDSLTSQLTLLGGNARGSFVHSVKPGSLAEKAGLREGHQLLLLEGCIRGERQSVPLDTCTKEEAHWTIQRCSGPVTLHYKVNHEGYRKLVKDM

T2: DLG3_2, Q92796
T2 sequence (Q92796 221-321, limits assumed, looked up): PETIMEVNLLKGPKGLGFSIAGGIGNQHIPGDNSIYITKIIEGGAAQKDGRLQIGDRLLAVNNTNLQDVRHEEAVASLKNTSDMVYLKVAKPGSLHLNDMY

T3: FRMPD1, Q5SYB0
T3 sequence (Q5SYB0 52-145, limits assumed, looked up): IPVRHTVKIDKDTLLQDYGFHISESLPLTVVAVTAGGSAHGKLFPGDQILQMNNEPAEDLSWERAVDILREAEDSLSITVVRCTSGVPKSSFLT

T4: GRIP1_4, Q9Y3R0
T4 sequence (Q9Y3R0 467-571, limits assumed, looked up): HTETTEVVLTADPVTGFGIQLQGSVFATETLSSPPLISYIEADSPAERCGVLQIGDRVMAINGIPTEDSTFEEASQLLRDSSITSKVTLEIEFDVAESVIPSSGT

T5: LIN7A, O14910
T5 sequence (O14910 103-200, limits assumed, looked up): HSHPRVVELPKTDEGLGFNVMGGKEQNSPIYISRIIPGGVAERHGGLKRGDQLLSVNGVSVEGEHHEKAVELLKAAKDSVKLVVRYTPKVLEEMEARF

T6: MPP6, Q9NZW5
T6 sequence (Q9NZW5 125-219, limits assumed, looked up): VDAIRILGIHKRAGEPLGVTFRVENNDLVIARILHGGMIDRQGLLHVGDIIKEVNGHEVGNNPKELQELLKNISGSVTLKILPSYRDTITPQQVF

T7: MPP7, Q5T2T1
T7 sequence (Q5T2T1 134-230, limits assumed, looked up): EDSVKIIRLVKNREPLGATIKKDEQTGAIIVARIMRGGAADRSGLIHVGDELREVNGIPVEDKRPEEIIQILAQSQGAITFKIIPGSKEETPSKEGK

T8: RAPGEF6, Q8TEU7
T8 sequence (Q8TEU7 525-625, limits assumed, looked up): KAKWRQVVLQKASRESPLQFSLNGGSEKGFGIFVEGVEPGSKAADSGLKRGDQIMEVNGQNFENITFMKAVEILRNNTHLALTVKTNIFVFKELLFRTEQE

T9: SNTG1, Q9NSN8
T9 sequence (Q9NSN8 52-150, limits assumed, looked up): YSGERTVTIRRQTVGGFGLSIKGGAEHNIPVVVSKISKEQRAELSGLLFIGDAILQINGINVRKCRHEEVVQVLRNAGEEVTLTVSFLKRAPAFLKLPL


Legend:
Experiment in all cases: holdup assay
Parameters in all cases: key: below the threshold = too weak to quantify, mostly under pKd 3.1 to 4
Settings in all cases: plain residues with an end cap or a label only (N-terminal biotin on a linker: ado-ado)
[1] = target: AHNAK1, Q09666
AHNAK1, Q09666, sequence (Q09666 4-100): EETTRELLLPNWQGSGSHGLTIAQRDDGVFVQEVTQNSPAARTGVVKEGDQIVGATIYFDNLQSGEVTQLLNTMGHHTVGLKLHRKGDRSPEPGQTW

[2] = target: T1, CARD11, Q9BXL7
[3] = target: DLG1_2, Q12959
DLG1_2, Q12959, sequence (Q12959 314-412): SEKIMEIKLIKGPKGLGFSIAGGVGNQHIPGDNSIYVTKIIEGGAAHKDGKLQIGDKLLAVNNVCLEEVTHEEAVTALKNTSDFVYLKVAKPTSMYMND

[4] = target: T2, DLG3_2, Q92796
[5] = target: T3, FRMPD1, Q5SYB0
[6] = target: FRMPD2_3, Q68DX3
FRMPD2_3, Q68DX3, sequence (Q68DX3 1073-1166): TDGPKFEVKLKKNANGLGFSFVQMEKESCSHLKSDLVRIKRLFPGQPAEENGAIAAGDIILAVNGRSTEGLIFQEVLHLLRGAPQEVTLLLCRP

[7] = target: T4, GRIP1_4, Q9Y3R0
[8] = target: GRIP2_4, Q9C0E4
GRIP2_4, Q9C0E4, sequence (Q9C0E4 446-548): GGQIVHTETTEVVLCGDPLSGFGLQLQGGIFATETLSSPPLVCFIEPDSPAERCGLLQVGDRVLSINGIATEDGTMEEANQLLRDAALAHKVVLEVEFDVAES

[9] = target: GRIP2_5, Q9C0E4
GRIP2_5, Q9C0E4, sequence (Q9C0E4 544-642): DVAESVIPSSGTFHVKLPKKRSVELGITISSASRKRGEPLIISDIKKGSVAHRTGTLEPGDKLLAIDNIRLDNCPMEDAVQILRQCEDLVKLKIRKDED

[10] = target: GRIP2_6, Q9C0E4
GRIP2_6, Q9C0E4, sequence (Q9C0E4 648-740): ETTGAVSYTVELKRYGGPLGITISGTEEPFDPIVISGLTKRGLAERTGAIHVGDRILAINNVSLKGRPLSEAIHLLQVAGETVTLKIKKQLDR

[11] = target: HTRA1, Q92743
HTRA1, Q92743, sequence (Q92743 360-477): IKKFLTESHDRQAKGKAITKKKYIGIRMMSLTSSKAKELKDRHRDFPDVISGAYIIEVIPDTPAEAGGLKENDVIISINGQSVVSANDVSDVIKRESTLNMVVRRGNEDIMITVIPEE

[12] = target: HTRA2, O43464
HTRA2, O43464, sequence (O43464 355-458): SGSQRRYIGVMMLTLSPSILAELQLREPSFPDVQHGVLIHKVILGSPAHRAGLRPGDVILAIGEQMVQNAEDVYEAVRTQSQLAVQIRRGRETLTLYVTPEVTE

[13] = target: IL16_3, Q14005
IL16_3, Q14005, sequence (Q14005 1107-1207): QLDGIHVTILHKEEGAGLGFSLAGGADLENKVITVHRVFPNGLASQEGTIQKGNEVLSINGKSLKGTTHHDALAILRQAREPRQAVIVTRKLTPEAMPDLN

[14] = target: IL16_4, Q14005
IL16_4, Q14005, sequence (Q14005 1229-1329): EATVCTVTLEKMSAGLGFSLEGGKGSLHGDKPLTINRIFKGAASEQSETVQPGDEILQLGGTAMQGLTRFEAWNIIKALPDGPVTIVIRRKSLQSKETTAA

[15] = target: Inadl_9, Q8NI35
Inadl_9, Q8NI35, sequence (Q8NI35 1530-1615): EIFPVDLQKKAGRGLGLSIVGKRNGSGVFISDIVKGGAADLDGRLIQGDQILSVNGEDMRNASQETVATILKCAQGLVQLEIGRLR

[16] = target: LDB3, O75112
LDB3, O75112, sequence (O75112 1-94): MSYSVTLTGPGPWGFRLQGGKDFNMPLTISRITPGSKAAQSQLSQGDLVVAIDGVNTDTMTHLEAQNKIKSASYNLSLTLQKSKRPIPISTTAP

[17] = target: LIMK2, P53671
LIMK2, P53671, sequence (P53671 143-248): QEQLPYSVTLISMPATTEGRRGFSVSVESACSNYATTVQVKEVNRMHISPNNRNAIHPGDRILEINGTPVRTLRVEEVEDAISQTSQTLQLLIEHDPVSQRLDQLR

[18] = target: T5, LIN7A, O14910
[19] = target: LNX1_1, Q8TBB1
LNX1_1, Q8TBB1, sequence (Q8TBB1 261-371): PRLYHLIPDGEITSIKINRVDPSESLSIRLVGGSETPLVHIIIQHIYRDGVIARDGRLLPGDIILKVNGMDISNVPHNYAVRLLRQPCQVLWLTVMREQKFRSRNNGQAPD

[20] = target: LNX1_3, Q8TBB1
LNX1_3, Q8TBB1, sequence (Q8TBB1 500-596): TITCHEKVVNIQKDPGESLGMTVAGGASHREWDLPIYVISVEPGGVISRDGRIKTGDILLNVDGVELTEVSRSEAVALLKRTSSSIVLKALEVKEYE

[21] = target: MAGI1_1, Q96QZ7
MAGI1_1, Q96QZ7, sequence (Q96QZ7 1-106): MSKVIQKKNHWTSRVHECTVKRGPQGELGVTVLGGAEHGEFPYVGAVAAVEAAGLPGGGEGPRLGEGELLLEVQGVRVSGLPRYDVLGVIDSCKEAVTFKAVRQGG

[22] = target: MAGI1_2, Q96QZ7
MAGI1_2, Q96QZ7, sequence (Q96QZ7 456-580): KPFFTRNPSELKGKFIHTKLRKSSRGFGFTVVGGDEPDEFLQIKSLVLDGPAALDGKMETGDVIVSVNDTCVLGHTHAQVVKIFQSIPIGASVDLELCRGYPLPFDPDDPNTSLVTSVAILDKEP

[23] = target: MAST1, Q9Y2H9
MAST1, Q9Y2H9, sequence (Q9Y2H9 962-1065): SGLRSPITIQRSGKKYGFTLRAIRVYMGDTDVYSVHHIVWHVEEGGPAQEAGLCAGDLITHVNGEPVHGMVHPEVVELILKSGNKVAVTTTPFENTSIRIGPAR

[24] = target: T6, MPP6, Q9NZW5
[25] = target: T7, MPP7, Q5T2T1
[26] = target: NHERF4_4, Q86UT5
NHERF4_4, Q86UT5, sequence (Q86UT5 464-550): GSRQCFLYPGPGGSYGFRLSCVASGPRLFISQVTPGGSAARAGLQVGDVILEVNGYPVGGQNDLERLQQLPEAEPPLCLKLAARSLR

[27] = target: PDZRN4_1, Q6ZMN7
PDZRN4_1, Q6ZMN7, sequence (Q6ZMN7 213-318): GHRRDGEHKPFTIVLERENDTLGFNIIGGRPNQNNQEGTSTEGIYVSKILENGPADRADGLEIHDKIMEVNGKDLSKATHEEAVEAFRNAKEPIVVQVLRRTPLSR

[28] = target: T8, RAPGEF6, Q8TEU7
[29] = target: T9, SNTG1, Q9NSN8

| pKd [1] | pKd [2] | pKd [3] | pKd [4] | pKd [5] | pKd [6] | pKd [7] | pKd [8] | pKd [9] | pKd [10] | pKd [11] | pKd [12] | pKd [13] | pKd [14] | pKd [15] | pKd [16] | pKd [17] | pKd [18] | pKd [19] | pKd [20] | Binder | also measured |
| --- | --- | --- | --- | --- | --- | --- | --- | --- | --- | --- | --- | --- | --- | --- | --- | --- | --- | --- | --- | --- | --- |
| below the threshold | below the threshold | below the threshold | 4.14 | below the threshold | below the threshold | below the threshold | below the threshold | below the threshold | 3.56 | 4.41 | below the threshold | below the threshold | below the threshold | below the threshold | below the threshold | below the threshold | below the threshold | below the threshold | below the threshold | KKAPTNEFYA [SDC4, P31431] | pKd [21]: below the threshold; pKd [22]: below the threshold; pKd [23]: below the threshold; pKd [24]: 3.91; pKd [25]: below the threshold; pKd [26]: below the threshold; pKd [27]: below the threshold; pKd [28]: below the threshold; pKd [29]: below the threshold |
| below the threshold | below the threshold | 4.68 | 4.13 | below the threshold | below the threshold | below the threshold | below the threshold | below the threshold | below the threshold | below the threshold | below the threshold | below the threshold | below the threshold | 4.11 | below the threshold | below the threshold | below the threshold | below the threshold | below the threshold | TKGPRGPTRV [SAPCD1, Q5SSQ6] | pKd [21]: below the threshold; pKd [22]: 4.19; pKd [23]: 4.09; pKd [24]: below the threshold; pKd [25]: below the threshold; pKd [26]: below the threshold; pKd [27]: 3.67; pKd [28]: below the threshold; pKd [29]: below the threshold |
| below the threshold | below the threshold | 4.69 | 4.47 | below the threshold | 3.54 | below the threshold | below the threshold | below the threshold | below the threshold | 4.55 | below the threshold | below the threshold | below the threshold | 3.75 | below the threshold | below the threshold | below the threshold | 3.95 | below the threshold | QGPVETESVV [SLC45A4, Q5BKX6] | pKd [21]: below the threshold; pKd [22]: below the threshold; pKd [23]: 4.36; pKd [24]: below the threshold; pKd [25]: below the threshold; pKd [26]: below the threshold; pKd [27]: 3.64; pKd [28]: below the threshold; pKd [29]: 4.75 |

— paper PMC9482650, “Quantitative fragmentomics allow affinity mapping of interactomes” (Nature Communications, 2022)
